# Laboratory results reported in PMC3247736.
# Tested on: IgM (human)
# Assay: QCM
# Details: 500 mg/L IgM vs 100 ug/L IgE; 5'-biotin; 8.1 mM Na2HPO4, 1.1 mM KH2PO4, 1 mM MgCl2, 2.7 mM KCl, 138 mM NaCl, pH 7.4, 37 C; BSA-blocked avidin-coated gold crystal
sequence,measurement,value
GGGGCACGTTTATCCGTCCCTCCTAGTGGCGTGCCCC [D17.4 anti-IgE aptamer],binding signal (% of IgE response),< 5
